Here are results for three molecules from patent US9758792B2, “Glyphosate resistant class 1 EPSPS genes” (SYNGENTA PARTICIPATIONS AG, priority 2013, dated 2017).

Where a chain is given by its changes, count along the chain named. Names and notes keep the numbering of the source.

For assay [1], the target named is native EPSPS from E. coli (Escherichia coli, UniProt P0A6D3). As to conditions: read-out: apparent Km for PEP; cited from earlier work.
A further assay concerns tobacco leaf discs. Description: Screening maize mutants using tobacco regeneration system on glyphosate medium. Format: cell-based. The conditions noted are these: regeneration medium containing 50 nM glyphosate and 200 mg/L Timentin. Here is the method:
The efficacy of maize mutant genes (Table 2) were tested using a tobacco leaf discs transformation/regeneration system. […] Additionally, a third mutant comprising the mutations of mutant #8 and #13 is possible resulting in an […] mutant.

The test system of assay [2] is T0 transgenic tobacco plants. The assay can be described thus: Spray with glyphosate (Touchdown) on ZmEPSPS mutant containing tobacco. The conditions noted are these: for tolerance to Touchdown spray: 2× and 4× field rates; for tolerance to Touchdown spray / herbicide damage: 2 weeks post treatment; for herbicide damage: 4× field rates as printed in the text; for Damage: assessed 2 weeks post treatment. Type of assay: in vivo. The method, then: T0 transgenic tobacco plants were grown on soil for 4 weeks in Conviron growth chambers. These plants were sprayed with 2×, 4× and 8× Touchdown herbicide at 2×, 4× and 8× field rate (1× field rate=1680 g AE/Ha), respectively, and the herbicide damage was assessed 2 weeks post treatment. […]

The mark [3] stands for this setting: Touchdown 2X field rate (1X = 1680 g AE/Ha).
The mark [4] stands for this setting: Touchdown 4X field rate (1X = 1680 g AE/Ha).
Setting [5] is: Touchdown 8X field rate (1X = 1680 g AE/Ha).

native EPSPS from E. coli, sequence (P0A6D3 whole entry): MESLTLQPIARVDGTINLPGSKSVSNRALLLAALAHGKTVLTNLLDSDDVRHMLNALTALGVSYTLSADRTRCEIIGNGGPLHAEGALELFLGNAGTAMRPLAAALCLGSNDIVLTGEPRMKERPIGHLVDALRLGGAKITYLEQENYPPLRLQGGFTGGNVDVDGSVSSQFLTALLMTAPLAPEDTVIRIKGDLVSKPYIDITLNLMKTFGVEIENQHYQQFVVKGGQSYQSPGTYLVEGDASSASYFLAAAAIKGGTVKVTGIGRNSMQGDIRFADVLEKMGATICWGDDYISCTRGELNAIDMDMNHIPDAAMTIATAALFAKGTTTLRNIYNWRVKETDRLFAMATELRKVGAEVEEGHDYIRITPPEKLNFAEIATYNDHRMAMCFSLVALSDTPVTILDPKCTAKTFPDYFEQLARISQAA

Consider `C=C(OP(=O)(O)O)C(=O)O` [PEP, phosphoenolpyruvic acid], for which, in assay [1], the Km – broadly, the substrate concentration at which the rate is half of its maximum – is 10 µM.

B1: ZmEPSPS-20: maize EPSPS mutant gene/protein, A68D and T102I; contains Table 2 mutant #13; SEQ ID NO. 6 (protein)
chain: AGAEEIVLQPIKEISGTVKLPGSKSLSNRILLLAALSEGTTVVDNLLNSEDVHYMLGALRTLGLSVEXDKAAKRAVVVGCGGKFPVEDAKEEVQLFLGNAGIAMRPLTAAVTAAGGNATYVLDGVPRMRERPIGDLVVGLKQLGADVDCFLGTDCPPVRVNGIGGLPGGKVKLSGSISSQYLSALLMAAPLALGDVEIEIIDKLISIPYVEMTLRLMERFGVKAEHSDSWDRFYIKGGQKYKSPKNAYVEGDASSASYFLAGAAITGGTVTVEGCGTTSLQGDVKFAEVLEMMGAKVTWTETSVTVTGPPREPFGRKHLKAIDVNMNKMPDVAMTLAVVALFADGPTAIRDVASWRVKETERMVAIRTELTKLGASVEEGPDYCIITPPEKLNVTAIDTYDDHRMAMAFSLAACAEVPVTIRDPGCTRKTFPDYFDVLSTFVKN
modifications: Mutated zea mays; (68)..(68) X = D or E
Consider B1, for which, in the assay on tobacco leaf discs, the “ability to regenerate on glyphosate media” value is given as “tolerant mutants”. In addition, the “tolerance to Touchdown spray” value in assay [2] was “completely tolerant”. Besides, the herbicide damage entry in assay [2] is reported as “only minor damage”. Further, the Damage result is given as “No damage” in assay [2] (setting [3]), “No damage” in assay [2] (setting [4]) and “Minor damage at shoot apex” in assay [2] (setting [5]).

B2: ZmEPSPS-27: maize EPSPS mutant gene/protein, A68E and G101C; contains Table 2 mutant #8; SEQ ID NO. 7 (protein)
chain: B1 chain with G101C, I102T
modifications: Mutated zea mays; (68)..(68) X = D or E
With B2, the “ability to regenerate on glyphosate media” value with tobacco leaf discs is listed as “tolerant mutants”. In addition, in assay [2], the “tolerance to Touchdown spray” value is listed as “completely tolerant”. In addition, the herbicide damage result in assay [2] was “only minor damage”. Moreover, the Damage result in assay [2] (setting [3]) is given as “No damage”; in assay [2] (setting [4]), “No damage”; in assay [2] (setting [5]), “Minor damage, some”.
